Results taken from patent publication US20160091498A1 (H LEE MOFFITT CANCER CENTER AND RESEARCH INSTITUTE, published 2016).
Primed or numbered codes have the meaning given here. No end group written: not given here. Biotin′ = not defined here

Molecular target: T1, NPAT (UniProt Q14207 1-1427)
T1 construct: other lysate proteins were present
T1 sequence (looked up): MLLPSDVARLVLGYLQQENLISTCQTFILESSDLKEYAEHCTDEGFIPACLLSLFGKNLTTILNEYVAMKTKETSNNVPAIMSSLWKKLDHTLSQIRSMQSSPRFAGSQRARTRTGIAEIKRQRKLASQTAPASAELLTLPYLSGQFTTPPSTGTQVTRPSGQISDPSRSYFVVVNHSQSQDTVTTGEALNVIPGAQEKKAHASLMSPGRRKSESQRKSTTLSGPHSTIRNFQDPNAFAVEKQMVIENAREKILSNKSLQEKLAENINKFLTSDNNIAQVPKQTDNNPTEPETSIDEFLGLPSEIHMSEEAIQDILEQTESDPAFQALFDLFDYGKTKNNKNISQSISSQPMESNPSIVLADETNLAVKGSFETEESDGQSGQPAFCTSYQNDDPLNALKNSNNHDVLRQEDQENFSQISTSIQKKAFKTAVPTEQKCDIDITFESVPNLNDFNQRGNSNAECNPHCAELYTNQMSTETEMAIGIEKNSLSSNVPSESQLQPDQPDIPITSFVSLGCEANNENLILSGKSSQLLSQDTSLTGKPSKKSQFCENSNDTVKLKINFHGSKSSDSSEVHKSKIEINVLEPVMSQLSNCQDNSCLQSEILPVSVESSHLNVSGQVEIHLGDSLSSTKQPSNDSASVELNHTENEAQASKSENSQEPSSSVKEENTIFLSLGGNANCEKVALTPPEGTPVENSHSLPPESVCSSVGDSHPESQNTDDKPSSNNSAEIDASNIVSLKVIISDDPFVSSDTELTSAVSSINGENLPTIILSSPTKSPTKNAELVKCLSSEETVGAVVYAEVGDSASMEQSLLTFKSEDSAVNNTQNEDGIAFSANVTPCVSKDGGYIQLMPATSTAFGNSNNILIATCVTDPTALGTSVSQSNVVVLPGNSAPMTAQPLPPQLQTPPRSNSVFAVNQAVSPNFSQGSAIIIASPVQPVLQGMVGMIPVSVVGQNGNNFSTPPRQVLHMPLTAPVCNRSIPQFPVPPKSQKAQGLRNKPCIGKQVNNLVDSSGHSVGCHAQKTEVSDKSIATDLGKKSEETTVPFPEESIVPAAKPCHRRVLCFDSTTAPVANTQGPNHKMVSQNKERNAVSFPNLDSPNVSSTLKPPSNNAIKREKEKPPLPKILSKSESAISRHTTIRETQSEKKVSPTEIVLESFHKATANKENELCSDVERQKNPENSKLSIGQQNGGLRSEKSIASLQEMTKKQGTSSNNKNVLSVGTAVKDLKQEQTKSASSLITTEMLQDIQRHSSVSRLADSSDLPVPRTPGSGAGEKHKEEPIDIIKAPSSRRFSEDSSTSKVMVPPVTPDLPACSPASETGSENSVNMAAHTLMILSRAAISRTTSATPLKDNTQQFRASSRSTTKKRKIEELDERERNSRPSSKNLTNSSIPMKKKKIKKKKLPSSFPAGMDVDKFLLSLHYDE
Assay: filter binding: peptide on nitrocellulose, HEK293 lysate, NPAT immunoblot

binding result: binds
B1: H2B(25-49) (peptide)
peptide: DGKKRKRSRKESYSVYVYKVLKQVH-{Biotin′}
notes: also called unphosphorylated H2B; human histone H2B peptide spanning amino acids 25-49
